Results on one substance are retold here after patent US20220412960A1.

A value given as a limit tells only on which side of the number the result lay.

The assay concerns the target PAR-1 receptor on human platelets (human) (UniProt P25116). The assay can be described thus: cell-based or functional assay.

PAR-1 receptor on human platelets (human), sequence (P25116 42-425): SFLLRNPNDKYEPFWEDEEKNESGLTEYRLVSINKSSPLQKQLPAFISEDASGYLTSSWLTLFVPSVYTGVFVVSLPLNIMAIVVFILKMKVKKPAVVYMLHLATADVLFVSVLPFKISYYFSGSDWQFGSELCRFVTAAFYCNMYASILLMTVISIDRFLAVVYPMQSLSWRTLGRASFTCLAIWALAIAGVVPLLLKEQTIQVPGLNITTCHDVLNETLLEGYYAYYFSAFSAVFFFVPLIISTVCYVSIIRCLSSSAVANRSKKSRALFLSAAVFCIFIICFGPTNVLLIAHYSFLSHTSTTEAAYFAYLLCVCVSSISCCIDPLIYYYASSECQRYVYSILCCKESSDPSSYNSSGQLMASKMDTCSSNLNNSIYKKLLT

In the case of “thrombin receptor agonist peptide TRAP-6”, the platelet aggregation, light transmission aggregometry, washed platelets of sepsis patients at ICU admission, 10 µM TRAP-6 is above 21.2% and the platelet aggregation, light transmission aggregometry, washed platelets of sepsis patients at ICU admission, 10 µM TRAP-6 (mean) is 34.2%.
